Test results from patent publication US20150238603A1.

How the values were obtained:
Human CD38 (human) [1] = target: Human CD38 (human) (UniProt P28907); test: flow cytometry, QuantiBRITE system, LP1 cells
Human CD38 (human) [2] = target: Human CD38 (human) (UniProt P28907); test: flow cytometry, QuantiBRITE system, NCI-H929 cells
Human CD38 (human) [3] = target: Human CD38 (human) (UniProt P28907); test: flow cytometry, QuantiBRITE system, RPMI8226 cells

Sequence of UniProt P28907 (P28907 whole entry): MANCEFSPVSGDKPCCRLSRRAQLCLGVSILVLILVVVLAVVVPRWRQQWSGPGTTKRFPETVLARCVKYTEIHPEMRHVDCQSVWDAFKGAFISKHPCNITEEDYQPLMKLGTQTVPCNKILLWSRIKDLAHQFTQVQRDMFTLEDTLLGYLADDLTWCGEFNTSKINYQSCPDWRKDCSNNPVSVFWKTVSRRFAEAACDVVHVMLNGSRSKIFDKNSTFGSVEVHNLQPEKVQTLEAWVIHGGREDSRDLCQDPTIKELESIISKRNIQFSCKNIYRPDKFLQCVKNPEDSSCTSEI

Antibodies Bound Per Cell (ABC) (antibodies bound per cell) (Human CD38 (human) [1]): 125000 | Antibodies Bound Per Cell (ABC) (antibodies bound per cell) (Human CD38 (human) [2]): 195000 | Antibodies Bound Per Cell (ABC) (antibodies bound per cell) (Human CD38 (human) [3]): > 677000
Substance: QuantiBRITE CD38-PE antibody (Becton Dickinson GmbH, Clone HB7, CAT #342371)
